Consider one substance from paper doi:10.1101/2025.06.18.660434.

In the experiment the target is GST-fusion RACK1 (UniProt P63244). The experiment is described as follows: pull-down.

A word on the Kd: it is the concentration at which binding is half-saturated. Lower therefore signals higher affinity. The substance “His-tagged PKAcα (from UniProt P17612 1-351) (enzyme)” had a Kd of 32 nM.
